Source: US20130280734A1

Each substance was assayed against human GLP-1 receptor (GLP-1R) (human) (UniProt P43220) (assay: cell-based or functional assay). Conditions: scale: times higher concentration than the active forms of GLP-1.
Sequence of human GLP-1 receptor (GLP-1R) (human) (P43220 24-463 limits assumed): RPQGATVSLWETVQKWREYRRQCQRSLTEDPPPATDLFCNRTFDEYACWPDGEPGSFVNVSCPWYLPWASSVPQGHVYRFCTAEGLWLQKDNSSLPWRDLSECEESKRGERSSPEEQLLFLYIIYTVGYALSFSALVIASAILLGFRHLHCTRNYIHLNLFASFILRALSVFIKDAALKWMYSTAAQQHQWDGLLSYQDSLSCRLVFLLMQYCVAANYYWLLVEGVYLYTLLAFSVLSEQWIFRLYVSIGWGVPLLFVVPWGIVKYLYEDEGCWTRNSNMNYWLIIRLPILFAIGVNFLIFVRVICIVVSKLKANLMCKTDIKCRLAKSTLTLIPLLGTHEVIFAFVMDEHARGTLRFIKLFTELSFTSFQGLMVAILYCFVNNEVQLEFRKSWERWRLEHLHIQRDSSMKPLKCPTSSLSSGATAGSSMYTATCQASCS
For “GLP-2 (from UniProt P01275 146-178) (peptide)”, the reactivity of the kit (aequorin luminescence), concentration relative to the active forms of GLP-1 was > 1e+06.
For “GLP-1 (9-36 amide) (from UniProt P01275 21-180) (peptide)”, the reactivity of the kit (aequorin luminescence), concentration relative to the active forms of GLP-1 was > 1e+06.
Substance “precursor GLP-1 (1-37) (from UniProt P01275 21-180) (peptide)” has a reactivity of the kit (aequorin luminescence), concentration relative to the active forms of GLP-1 of 10000.
For “GIP (gastric inhibitory peptide or glucose-dependent insulinotropic polypeptide) (from UniProt P09681 52-93)”, the reactivity of the kit (aequorin luminescence), concentration relative to the active forms of GLP-1 was > 1e+06.
